Consider two substances from publication PMC5050560.

Assay [1] deals with cdPadR1 (PadR family transcription regulator, product of CDR20291_0991, Clostridium difficile R20291) (Clostridium difficile R20291). Nature of the assay: SEC-MALS. A general note: SEC sorts molecules by how far they enter the pores of the column.
Assay [2] has the same target. Nature of the assay: SEC.
Assay [3] deals with cdPadR1^W94A (Clostridium difficile R20291). Nature of the assay: SEC-MALS.

With “cdPadR1 (PadR family transcription regulator, product of CDR20291_0991, Clostridium difficile R20291) (from UniProt A0A9R0CDW8 1-109) (natural protein)”, the stoichiometry N in assay [1] and in assay [2] was 2 in each case.
Substance “cdPadR1^W94A (from UniProt A0A9R0CDW8 1-109) (natural protein)” registered a stoichiometry N in assay [3] of 2.

One may read the stoichiometry N as a count of units in the complex or per binding partner.
